Laboratory results taken from publication doi:10.1101/2024.05.28.596263.

What was measured:
Test in all cases: cryo-EM structure
[1] = molecular target: dephosphorylated CFTR of the P-ATP + AMP-PNP sample (human) (UniProt P13569)
[2] = molecular target: fully-phosphorylated CFTR carrying the ATP-hydrolysis-disrupting E1371Q mutation (human) (UniProt P13569)
[3] = molecular target: recombinant human CFTR (cystic fibrosis transmembrane conductance regulator), wild type, dephosphorylated (human) (UniProt P13569)

stoichiometry N (PKA-C per CFTR) [1]: 1
stoichiometry N (PKA-C per CFTR) [2]: 1
stoichiometry N (PKA-C per CFTR) [3]: 2
Substance: protein kinase A catalytic subunit purified from bovine heart (from UniProt P00517 1-351) (enzyme)
